{"source": "patent US20250011363A1", "about": "“OPTIMIZED SHORTENED PEPTIDE THAT BINDS TO ACETYLCHOLINE RECEPTOR, AND USE THEREOF” (SKINMED CO., LTD., priority 2021, published 2025)", "data": [{"biological_target": "acetylcholine receptor", "assay": "SPR, peptide at 10 µM on acetylcholine receptor", "units": {"Binding affinity (RU)": "RU"}, "values": [{"binder": "RLVTR", "note": "[5mer-53]", "Binding affinity (RU)": 50}, {"binder": "RQIRR", "note": "[5mer-65]", "Binding affinity (RU)": 67}, {"binder": "KLQYR", "note": "[5mer-59]", "Binding affinity (RU)": 68}, {"binder": "KLLYR", "note": "[5mer-355]", "Binding affinity (RU)": 87}, {"binder": "KSFSK", "note": "[5mer-351]", "Binding affinity (RU)": 75}, {"binder": "RSYQR", "note": "[5mer-361]", "Binding affinity (RU)": 58}, {"binder": "RQLCK", "note": "[5mer-360]", "Binding affinity (RU)": 66}, {"binder": "RSVQK", "note": "[5mer-367]", "Binding affinity (RU)": 71}, {"binder": "KRFCK", "note": "[5mer-56]", "Binding affinity (RU)": 59}, {"binder": "KQVYR", "note": "[5mer-349]", "Binding affinity (RU)": 50}, {"binder": "KQRLK", "note": "[5mer-362]", "Binding affinity (RU)": 62}, {"binder": "RLLQR", "note": "[5mer-70]", "Binding affinity (RU)": 69}, {"binder": "KQLYR", "note": "[5mer-57]", "Binding affinity (RU)": 73}, {"binder": "KWVSK", "note": "[5mer-58]", "Binding affinity (RU)": 75}, {"binder": "RWITR", "note": "[5mer-364]", "Binding affinity (RU)": 62}, {"binder": "RRFSR", "note": "[5mer-55]", "Binding affinity (RU)": 58}, {"binder": "RLLRK", "note": "[5mer-63]", "Binding affinity (RU)": 86}, {"binder": "RQLQK", "note": "[5mer-366]", "Binding affinity (RU)": 52}, {"binder": "RGFTR", "note": "[5mer-369]", "Binding affinity (RU)": 84}, {"binder": "KRVRK", "note": "[5mer-363]", "Binding affinity (RU)": 59}, {"binder": "RGFRK", "note": "[5mer-357]", "Binding affinity (RU)": 54}, {"binder": "KRIRR", "note": "[5mer-368]", "Binding affinity (RU)": 50}, {"binder": "KVRSK", "note": "[5mer-358]", "Binding affinity (RU)": 50}, {"binder": "RQQYK", "note": "[5mer-52]", "Binding affinity (RU)": 50}, {"binder": "KVVTR", "note": "[5mer-64]", "Binding affinity (RU)": 76}, {"binder": "KWLQR", "note": "[5mer-54]", "Binding affinity (RU)": 66}, {"binder": "RLILK", "note": "[5mer-61]", "Binding affinity (RU)": 66}, {"binder": "KQLTK", "note": "[5mer-62]", "Binding affinity (RU)": 70}, {"binder": "KRFQK", "note": "[5mer-359]", "Binding affinity (RU)": 79}, {"binder": "RLVRK", "note": "[5mer-352]", "Binding affinity (RU)": 76}, {"binder": "KLLCR", "note": "[5mer-50]", "Binding affinity (RU)": 63}, {"binder": "RSLQR", "note": "[5mer-51]", "Binding affinity (RU)": 70}, {"binder": "RGFYK", "note": "[5mer-68]", "Binding affinity (RU)": 82}, {"binder": "KSQLK", "note": "[5mer-353]", "Binding affinity (RU)": 59}, {"binder": "RSRSR", "note": "[5mer-69]", "Binding affinity (RU)": 50}, {"binder": "KRLLR", "note": "[5mer-66]", "Binding affinity (RU)": 80}, {"binder": "RLFTK", "note": "[5mer-60]", "Binding affinity (RU)": 86}, {"binder": "KRRYK", "note": "[5mer-365]", "Binding affinity (RU)": 52}, {"binder": "KWRTR", "note": "[5mer-49]", "Binding affinity (RU)": 62}, {"binder": "RQLYR", "note": "[5mer-67]", "Binding affinity (RU)": 86}, {"binder": "RSQTR", "note": "[5mer-354]", "Binding affinity (RU)": 64}, {"binder": "KQVLR", "note": "[5mer-356]", "Binding affinity (RU)": 65}, {"binder": "KSYYK", "note": "[5mer-350]", "Binding affinity (RU)": 59}]}, {"biological_target": "acetylcholine receptor", "assay": "SPR, AchR immobilised, peptide 10 uM", "units": {"Binding affinity (RU)": "RU"}, "values": [{"binder": "KRIWVR", "note": "[6mer-1-1119]", "Binding affinity (RU)": 31}, {"binder": "KKKKPK", "note": "[6mer-1-1128]", "Binding affinity (RU)": 39}, {"binder": "RRDNVK", "note": "[6mer-1-1123]", "Binding affinity (RU)": 41}, {"binder": "RKDNIK", "note": "[6mer-1-1131]", "Binding affinity (RU)": 42}, {"binder": "KKDEIR", "note": "[6mer-1-1124]", "Binding affinity (RU)": 21}, {"binder": "RKDHAR", "note": "[6mer-1-1129]", "Binding affinity (RU)": 39}, {"binder": "RKMMMK", "note": "[6mer-1-1127]", "Binding affinity (RU)": 34}, {"binder": "RRKEAK", "note": "[6mer-1-1120]", "Binding affinity (RU)": 22}, {"binder": "RRTMGR", "note": "[6mer-1-1122]", "Binding affinity (RU)": 33}, {"binder": "RRHCDK", "note": "[6mer-1-1126]", "Binding affinity (RU)": 41}, {"binder": "RKATFR", "note": "[6mer-1-1130]", "Binding affinity (RU)": 31}, {"binder": "KKTWWR", "note": "[6mer-1-1121]", "Binding affinity (RU)": 28}, {"binder": "KKPTDR", "note": "[6mer-1-1125]", "Binding affinity (RU)": 26}, {"binder": "KKDTIK", "note": "[6mer-1-1118]", "Binding affinity (RU)": 33}]}]}
